Reference: paper PMC6748613 (mAbs, 2019)
Positions count from the first letter of the chain named.

B1: bH1 Fab variant Y^H33-M^H98-M^H99-R^L30b (Fab, V domains shown)
VH: not shown
VL: DIQMTQSPSSLSASVGDRVTITCRASQDIPRRISGYVAWYQQKPGKAPKLLIYWGSYLYSGVPSRFSGSGSGTDFTLTISSLQPEDFATYYCQQHYTTPPTFGQGTKVEIK
B2: bH1 Fab variant W^H33-M^H98-G^H99-R^L30b (Fab, V domains shown)
VH: not shown
VL: B1 VL
B3: bH1 Fab variant W^H33-W^H98-M^H99-R^L30b (Fab, V domains shown)
VH: EVQLVESGGGLVQPGGSLRLSCAASGFNIKDTWIHWVRQAPGKGLEWVARIYPTNGYTRYADSVKGRFTISADTSKNTAYLQMNSLRAEDTAVYYCSRWGGWMFYAMDYWGQGTLVTVSS
VL: B1 VL
B4: bH1 Fab variant W^H33-F^H98-D^H99-R^L30b (Fab, V domains shown)
VH: B3 VH with W102F, M103D
VL: B1 VL
B5: bH1 Fab variant Y^H33-W^H98-D^H99-R^L30b (Fab, V domains shown)
VH: not shown
VL: B1 VL
B6: bH1 Fab variant W^H33-M^H98-D^H99-R^L30b (Fab, V domains shown)
VH: B3 VH with W102M, M103D
VL: B1 VL
B7: bH1 Fab variant W^H33-W^H98-D^H99-R^L30b (Fab, V domains shown)
VH: B3 VH with M103D
VL: B1 VL
B8: bH1 Fab variant W^H33-F^H98-G^H99-R^L30b (Fab, V domains shown)
VH: not shown
VL: B1 VL
B9: bH1 Fab variant Y^H33-M^H98-D^H99-R^L30b (Fab, V domains shown)
VH: not shown
VL: B1 VL
B10: bH1 Fab variant W^H33-M^H98-M^H99-R^L30b (Fab, V domains shown)
VH: B3 VH with W102M
VL: B1 VL
B11: bH1 Fab variant Y^H33-W^H98-R^H99-R^L30b (Fab, V domains shown)
VH: not shown
VL: B1 VL

Target: vascular endothelial growth factor (VEGF)-A, isoform 165 (Homo sapiens, UniProt P15692-4)
Assay: SPR

ΔΔG_bind against the parental Fab	Binder
-1.71 kcal/mol	B1
-1.51 kcal/mol	B2
-2.07 kcal/mol	B3
-2.04 kcal/mol	B4
-1.88 kcal/mol	B5
-1.89 kcal/mol	B6
-2.57 kcal/mol	B7
-1.09 kcal/mol	B8
-1.58 kcal/mol	B9
-2.27 kcal/mol	B10
-0.97 kcal/mol	B11
